The source of these data is article doi:10.1101/756791 (bioRxiv, 2019).

In test [1] the target is T1, Rpn10/S5a (UIM motifs: 196-306aa) (UniProt P55036 196-306).
T1 sequence (looked up): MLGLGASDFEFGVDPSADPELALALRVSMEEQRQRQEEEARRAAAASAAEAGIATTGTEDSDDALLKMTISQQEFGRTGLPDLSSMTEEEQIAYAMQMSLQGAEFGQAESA
In words: NMR titration.

In test [2] the target is T1, Rpn10/S5a (UIM motifs: 196-306aa). In words: NMR titration. The source holds these as a separate data set.
The target in test [3] is hRpn13 (Pru domain: 1-150aa) (human, UniProt Q16186 1-150). Briefly: other fluorescence titration.
Chain of hRpn13 (Pru domain: 1-150aa) (Q16186 1-150): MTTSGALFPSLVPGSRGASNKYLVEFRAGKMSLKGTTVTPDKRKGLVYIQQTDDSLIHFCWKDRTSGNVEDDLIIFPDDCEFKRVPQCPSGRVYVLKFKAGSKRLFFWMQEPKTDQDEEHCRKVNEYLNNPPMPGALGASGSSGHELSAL
In test [4] the target is T1, Rpn10/S5a (UIM motifs: 196-306aa). In words: ITC.

B1: viral Ubiquitin from Autographa Californica Multiple Nucleo-Polyhedrosis Virus (AcMNPV) (natural protein)
chain: not shown
A word on the Kd: it is the free concentration of one partner at which half of the binding sites on the other are occupied at equilibrium, for simple one-to-one binding. A high value points to a looser complex. Broadly, the stoichiometry N is a count of units in the complex or per binding partner. With B1, in test [1], the “KD of the UIM1 site” value came out at 331 µM and the “KD of the UIM2 site” value came out at 21 µM. The dissociation constant Kd in test [2] stood at 78 µM. In test [3], binding was characterised by a dissociation constant (Kd) of 0.04 µM. In addition, in test [4], the Kd is 85 µM, the dH is -4.5 ± 0.3 kcal/mol and the “stoichiometry N” value was found to be 2 ± 0.1.
